The numbers were not newly measured in article PMC7854602, which cites them from elsewhere.

Broadly, the Kd is the constant that tells how readily two partners part at equilibrium.

Targets include Cdc42 (inactive) (UniProt P60953); Cdc42 (activated) (UniProt P60953); RhoA (inactive) (UniProt P61586); RhoA (activated) (UniProt P61586).

Turning to Pak3 CBD 60-113 (from UniProt O75914), the Kd with Cdc42 (inactive) is 149 µM; in the data set with Cdc42 (activated), 1800 nM.

For the substance Rhotekin RBD 8-81 (from UniProt Q8C6B2), the Kd with RhoA (inactive) was 47 µM; with RhoA (activated), 3.9 µM.
